From the supplement of paper PMC6755084 come the findings set out here.

First the molecules themselves.
B1: F1*; the commonest letter at each place (parent)
chain: GAGACCGCAACTGAAAAGTTGTTATCACTTGTCGTAAGACACTTTGGATGGGTTGAAGTTCTGCACGTAGAAGCAAAAGGC

Variants of B1 are the subject of this series. Kind of series: fraction ligated after 30 min (ligated reads / total reads); higher = more ligase activity. As to conditions: with F1*sub RNA substrate (template-directed ligation), 42 °C. The method in brief:
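The ligase ribozyme variants were produced by PCR amplification of oligo-pool templates, T7 transcription and purification on gel. Their ligated and unligated forms were gel-separated, then reverse transcribed with barcoded primers before MiSeq sequencing. Core bases were filtered at a quality of ≥20, and fraction ligated per variant was ligated reads over total reads.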
For the variant GAGACCGCAACTGAAAAGTTGTTATAACTTGTCGTAAGACACTTTGGATGGGTTCAAGTTCTGCACGTAGAAGCAAAAGGC [C26A G55C], the fraction ligated turned out to be 0.0379.

GAGACCGCAACTGAAAAGTTGTTATAACTTGTCGTAAGACACTTTGGATGGGTTTAAGTTCTGCACGTAGAAGCAAAAGGC [C26A G55T]: the fraction ligated was 0.249.

With GAGACCGCAACTGAAAAGTTGTTATAACTTGTCGTAAGACACTTTGGATGGGTTAAAGTTCTGCACGTAGAAGCAAAAGGC [C26A G55A], the fraction ligated was 0.618.

For the variant GAGACCGCAACTGAAAAGTTGTTATAACTTGACGTAAGACACTTTGGATGGGTTGAAGTTCTGCACGTAGAAGCAAAAGGC [C26A T32A], the fraction ligated came to 0.48.

As for GAGACCGCAACTGAAAAGTTGTTATAACTTGCCGTAAGACACTTTGGATGGGTTGAAGTTCTGCACGTAGAAGCAAAAGGC [C26A T32C], the fraction ligated came to 0.545.

Take GAGACCGCAACTGAAAAGTTGTTATAACTTGGCGTAAGACACTTTGGATGGGTTGAAGTTCTGCACGTAGAAGCAAAAGGC [C26A T32G]: the fraction ligated is 0.499.

Take GAGACCGCAACTGAAAAGTTGTTATAACTTGTCGCAAGACACTTTGGATGGGTTGAAGTTCTGCACGTAGAAGCAAAAGGC [C26A T35C]: the fraction ligated was 0.807.

GAGACCGCAACTGAAAAGTTGTTATAACTTGTCGGAAGACACTTTGGATGGGTTGAAGTTCTGCACGTAGAAGCAAAAGGC [C26A T35G]: the fraction ligated stood at 0.794.

Regarding GAGACCGCAACTGAAAAGTTGTTATAACTTGTCGAAAGACACTTTGGATGGGTTGAAGTTCTGCACGTAGAAGCAAAAGGC [C26A T35A], the fraction ligated was 0.803.

With GAGACCGCAACTGAAAAGTTGTTATAACTGGTCGTAAGACACTTTGGATGGGTTGAAGTTCTGCACGTAGAAGCAAAAGGC [C26A T30G], the fraction ligated is 0.802.

On to GAGACCGCAACTGAAAAGTTGTTATAACTAGTCGTAAGACACTTTGGATGGGTTGAAGTTCTGCACGTAGAAGCAAAAGGC [C26A T30A], for which the fraction ligated was determined as 0.791.

With GAGACCGCAACTGAAAAGTTGTTATAACTCGTCGTAAGACACTTTGGATGGGTTGAAGTTCTGCACGTAGAAGCAAAAGGC [C26A T30C], the fraction ligated was determined as 0.781.

On to GAGACCGCAACTGAAAAGTTGTTATAACTTGTCGTAAGACACTTTGGATCGGTTGAAGTTCTGCACGTAGAAGCAAAAGGC [C26A G50C], for which the fraction ligated came out at 0.0201.

GAGACCGCAACTGAAAAGTTGTTATAACTTGTCGTAAGACACTTTGGATAGGTTGAAGTTCTGCACGTAGAAGCAAAAGGC [C26A G50A]: the fraction ligated was determined as 0.0155.

GAGACCGCAACTGAAAAGTTGTTATAACTTGTCGTAAGACACTTTGGATTGGTTGAAGTTCTGCACGTAGAAGCAAAAGGC [C26A G50T]: the fraction ligated was 0.0739.

Take GAGACCGCAACTGAAAAGTTGTTATAACTTGTCGTAAGACACTTTGTATGGGTTGAAGTTCTGCACGTAGAAGCAAAAGGC [C26A G47T]: the fraction ligated was found to be 0.235.

Take GAGACCGCAACTGAAAAGTTGTTATGCCTTGTCGTAAGACACTTTGGATGGGTTGAAGTTCTGCACGTAGAAGCAAAAGGC [C26G A27C]: the fraction ligated worked out at 0.782.

On to GAGACCGCAACTGAAAAGTTGTTATGGCTTGTCGTAAGACACTTTGGATGGGTTGAAGTTCTGCACGTAGAAGCAAAAGGC [C26G A27G], for which the fraction ligated stood at 0.694.

Consider GAGACCGCAACTGAAAAGTTGTTATAACTTGTCGTAAGACACTTCGGATGGGTTGAAGTTCTGCACGTAGAAGCAAAAGGC [C26A T45C], for which the fraction ligated came to 0.0795.

For the variant GAGACCGCAACTGAAAAGTTGTTATAACTTGTCGTAAGACACTTAGGATGGGTTGAAGTTCTGCACGTAGAAGCAAAAGGC [C26A T45A], the fraction ligated was found to be 0.366.

Regarding GAGACCGCAACTGAAAAGTTGTTATAACTTGTCGTAAGACACTTGGGATGGGTTGAAGTTCTGCACGTAGAAGCAAAAGGC [C26A T45G], the fraction ligated is 0.0382.

On to GAGACCGCAACTGAAAAGTTGTTATAACTTGTCGTAAGACACTTTGGAAGGGTTGAAGTTCTGCACGTAGAAGCAAAAGGC [C26A T49A], for which the fraction ligated was determined as 0.216.

As to GAGACCGCAACTGAAAAGTTGTTATAACTTGTCGTAAGACACTTTGGAGGGGTTGAAGTTCTGCACGTAGAAGCAAAAGGC [C26A T49G], the fraction ligated was 0.502.

In the case of GAGACCGCAACTGAAAAGTTGTTATAACTTGTCGTAAGACACTTTGGACGGGTTGAAGTTCTGCACGTAGAAGCAAAAGGC [C26A T49C], the fraction ligated was found to be 0.0891.

With GAGACCGCAACTGAAAAGTTGTTATAACATGTCGTAAGACACTTTGGATGGGTTGAAGTTCTGCACGTAGAAGCAAAAGGC [C26A T29A], the fraction ligated came to 0.786.

As for GAGACCGCAACTGAAAAGTTGTTATAACGTGTCGTAAGACACTTTGGATGGGTTGAAGTTCTGCACGTAGAAGCAAAAGGC [C26A T29G], the fraction ligated is 0.784.

Regarding GAGACCGCAACTGAAAAGTTGTTATAACCTGTCGTAAGACACTTTGGATGGGTTGAAGTTCTGCACGTAGAAGCAAAAGGC [C26A T29C], the fraction ligated stood at 0.804.

As to GAGACCGCAACTGAAAAGTTGTTATAACTTGTCGTAAGACACTATGGATGGGTTGAAGTTCTGCACGTAGAAGCAAAAGGC [C26A T44A], the fraction ligated is 0.792.

For GAGACCGCAACTGAAAAGTTGTTATAACTTGTCGTAAGACACTGTGGATGGGTTGAAGTTCTGCACGTAGAAGCAAAAGGC [C26A T44G], the fraction ligated is 0.78.

With GAGACCGCAACTGAAAAGTTGTTATAACTTGTCGTAAGACACTCTGGATGGGTTGAAGTTCTGCACGTAGAAGCAAAAGGC [C26A T44C], the fraction ligated came to 0.782.

Regarding GAGACCGCAACTGAAAAGTTGTTATAACTTGTCGTAAGACACGTTGGATGGGTTGAAGTTCTGCACGTAGAAGCAAAAGGC [C26A T43G], the fraction ligated worked out at 0.547.

For the variant GAGACCGCAACTGAAAAGTTGTTATAACTTGTCGTAAGACACATTGGATGGGTTGAAGTTCTGCACGTAGAAGCAAAAGGC [C26A T43A], the fraction ligated was 0.809.

In the case of GAGACCGCAACTGAAAAGTTGTTATAACTTGTCGTAAGACACCTTGGATGGGTTGAAGTTCTGCACGTAGAAGCAAAAGGC [C26A T43C], the fraction ligated stood at 0.755.

On to GAGACCGCAACTGAAAAGTTGTTATGACTTGTCGTAAGACACTTTGGATGGGTTGAAGTTCTGCACGTAGAAGCAAAAGGC [C26G], for which the fraction ligated amounted to 0.773.
